From the nanobody polyreactivity screen of Harvey et al. (2022)

Test: yeast display, Sf9 membrane polyspecificity reagent, FACS + sequencing; frameworks hold sequencing errors
Procedure, shortened: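 Synthetic nanobody libraries on Saccharomyces cerevisiae BJ5465 were galactose-induced for 36–48 hours, stained 1 hour at 4 °C with 10% biotinylated, detergent-solubilized Sf9 membrane reagent and enriched on streptavidin microbeads. FACS then separated cells into low and high (top ~1%) gates by anti-HA (expression) and streptavidin (reagent binding) fluorescence. Genes were colony-PCR amplified, MiSeq 2 × 250 sequenced and CDR-length filtered. A clone's polyreactivity label is that of its gate of origin.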

| Sequence | polyreactivity (PSR sort gate) |
| --- | --- |
| QVQLVESGGGLVQAGGSLRLSCAASGFTFPVYAMGWYRQATGKVRELVAAISRRGGRTYYADSVKGRFTISRDNAKNTVSLQMNSLKPEDTAVYYCNKGETLYGSVPYDYWGQGTQVTVSS | high polyreactivity |
| QVQLVDSGGGLVQARGSLRLTCAASGRIYNLYAMGWYRQAPGKERELVAAIRGRGTSTYYADSVKVRFTISRDKAKNTVYFQMNSLKPEDTAVYYCASEGGYGPTLQDTSRYEYWGQGTQVTVSS | low polyreactivity |
| QVQLVESGVGLVQAGGSLRLSCAASGFIFPYYTMGWFRPAPGKERELVAAINVSGGSTYYADSVKGRFTISRDNAKNTVYVQMNSLKPEDTAVYYCAAVGGRFVGRSTMDYWGQGTQVTVSS | low polyreactivity |
| QVQLVESGGGLVQAGGSLRLSCAASGFIFTIYAMGWYRQAPGKERELVAAITWNGGRTYYADSVKGRFTISRDNAKNTVYLQMNSLKPEDTAVYYCAARYGRAYDYWGQGTQVTVSS | high polyreactivity |
| QVQLVESGGGLVQAGGSLRLSCAASGSTFLYYAMGWYRQAPGKERELVARITTRVGRTYYADSVKGRFTISRDNAKNTVYFQMNSLKPEDTAVYYCAAYPDYSYYYWGQGTQVTVSS | high polyreactivity |
| QVQLVESGGGLVQAGGSLRLSCAASGRIFGQNAMGWYRQAPGKERELVAAITWNGGRTYYADSVKGRFTISRDNAKNTVYLQMNSLKPEDTAVYYCNADGKHRLRDYWGQGTQVTVSS | high polyreactivity |
| QVQLVESGGGLVQAGGSLRLSCAASGRTFQRYAMGWYRQAPGKERELVAAITSRGGSTYYADSVKGRFTISRDNAKNTVYLQMNSLKPEDTAVYYCNARSRRTHSEPQSEMDYWGQGTQVTVSS | high polyreactivity |
| QVQLVESGGGLVQAGGSLRLSCAASGITFEVNAMGWYRQAPGKERELVARISRDGSTNYADSVKGRFTISRDNAKNTVYLQRNSLKPEDTAVYYCNAKLYRSFDYWGQGTQVTVSS | low polyreactivity |
| QVQLVESGGGLVQAGGSLRLRCAASGRTNAYYNMGRYRQAPGKERELVAAISKSGGSTYYADSVKGRFTISRDNAKNTVYLQMNSLKPEDTAVYYCAKRRSGNVRKYDYWGQGTQVTVSS | high polyreactivity |
| QVQLVESGGGLVQAGGSLRLSCAASGGILVGYAMGWYRQAPGKERELVAAINYSGGSTNYADSVKGRFTISRDNAKNTVYLQMNSLKPVDTAVYYCAARSTARYGYWGQGTQVTVSS | low polyreactivity |
| QVQLVESGGGLVQAGGSLRLSCAASGRIFYSYAMGWYIPAPGKERELVAAITVSGGSTFYADSVKGRFTISRDNAKNTVYLQMNSLKPEDTAVYYCAAQSTTIEDGWYVEYNYWGQGTQVTVSS | high polyreactivity |
| QVKLVESGGGLVQAGGSLRLSCAASGNIFSIYAMGWYRQAPGKERELVAAITARGGRTYYADSVKGRFTFSRDNAKNTVYLQMNSLKPEDTAVYYCNAVRSTKGYWVPFGGDYWGQGTQGTVSS | low polyreactivity |
| QVQLVESGGGLVQAGGSLRLSCAASGSIFVGYDMGWYRQAPGKEREWVAAITSSGGGSTYYADSVKGRFTISRDNAKNTVYLQMNSLKPEDTAVYYCAARTSLWWFLKYDYWGQGTQVTVSS | low polyreactivity |
| QVQLVESGGGLVQAGGSLRLSCAASGRIFRRYAMGWYRQAPAKERELVAAITTSGGSTYYADSVKGRFTISRDNAKNTVYLQMNSQNPADTAVYYCNTVSPYKYDWGLGTQVTVSS | high polyreactivity |
| QVQLVESGGGLVQAGGSLRLSCAASGSTLESYAMGWYRQAAGKERELVAAISKSGGRTYYADSVKGRFTISRDNAKNTVYLQMNSLKPEDTAVYYCAADSCTHLTYYWGQGTQVTVSS | high polyreactivity |
| QVQLVESGGGLVQAGGSLRLSCAASGRTFKGYTMGWYRQAPGKERELVAAITRSGGGTYYADSVKGRFTISRDNAKNTVYLQMNSLKPEDTAVYYCAARRPGYYYPSKFDYWGQGTQVTVSS | high polyreactivity |
| QVQLVESGGGLVKAGGSLRLSCAASGSIFLTYAMGWNRQAPGKERELVAAITQSGGSTYYADSVKGRFTISRDNAKNTVYLQMNSLKPEDTAVYYCAADVFGPQYWWYDYWGQGTQVTVSS | low polyreactivity |
| QVQLVESGGGLVQAGGSLRLSCAASGFTFYLNAKGWYRQAPGKERELVAAITGSGGSTYYADSVKGRFTISRDNAKNTVYLQMNSLKPEDTAVYYCAADLYFYVISSGYGFYYWGQGTQVTVSS | low polyreactivity |
| QVQLVESGGGLVQAGGSLRLSCADSGRIFVAYAMGWYRQAPGKERELFADITWSGDITYYADSVKGRFTISRDNAKNTVYLQMNSLKPEDTAVYYCAADYHRRRTDYDYWGQVTQVTVSS | low polyreactivity |
| QLQLVESGGGIVQAGGSLRLSCAASGSTFLRNAMGRYRQAPGKKGSGVATISYDGYSTYYADSVKGRLTISRDNAKNSFYLQMNSLKPEDTAVYYCAASYSLTFWDKDDYWGQGSQVTVSS | low polyreactivity |
| QVQLVESGGGLVQAGGSLRLSCAASGRNLGYNAMGWYRQAPGKERELVAAISWSGGSTYYADSVKGRFTISRDNAKNTVYLQMNSLKPEDTAVYYCAARNNRYPLYNYWGQGTQVTVSS | low polyreactivity |
| QVQLVESGGGLVQAGGSLRLSCAASGSIFWVYAMGWYRQAPGKERELVAAISSSGGRTYYADSVKGRFTISRDNAKNTVYLQMNSLKPEDTAVYYCASRWKTGYNYWGQGTQVTVSS | high polyreactivity |

| Sequence | polyreactivity (PSR sort gate) |
| --- | --- |
| QVQLVESGGGLVQAGGSLRLSCAASGRIFDRNAMGWYRQATGKERELVARIDPGDDTNYADSVKGRFTISRDNAKNTVYLLMNSLKPEDTAVYYCATDPDYVLYRTAYYEYDYWGHGTQVTVSS | low polyreactivity |
| QVQLVESGGGLVQAGGSLRLSCAASGSIFNYNDMGWYRQAPGKERELVAAIDSSGTSTYYADSVKGRFTISRDNAKNTVYLQMNSLKPEDTAVYYCNADSSLGFGYWGQGTQVTVSS | low polyreactivity |
| QVQLVESGGGLVQAGGSLRLSCAASGNTLTYNVMGWYRQAPGKERELVAAISGRGGRTYYADSVKGRFTISRDNAKNTVYLQMNCLKPEDTAVYYCAAKSRNGESGGFDYWGQATQVTVSS | high polyreactivity |
| QVQLVESGGCLVQAGGSLRLSCAASGLIFLGYAMGWYRQAPGKERELVASIRTGGSTSYADSVKGRFTISRDNAKNTVYLQMYSLKPEDTAVYYCAADRGRPNLPGDYWGQGTQVTVSS | low polyreactivity |
| QVQLVESGGGLVQAGGSLRLSCAASGSIFKKYAMGWYRQAPGKERELVAAISKSGGSTYYADSVKGRFTISRDNAKNTVYLQMNSLKPDDTAVYYCAAAAGGSAYWDYDYWGQGTQVTVSS | low polyreactivity |
| QVQLVESGGALVQAGGSLRLSCAASGITFLYYAMGWYRQAPGKERELVAAISGGGASTYYADSVKGRFTISRDNAKNTVYLQMNSLKPEDTAVYYCAAGYRDFFRARFGYWGQGTQVTVSS | high polyreactivity |
| QVQLVESGGGLVQAGGSLRLSCAASGFIFPRYFMGLYRQAPGKERELVAAINSDISTNYADSVKWRFTISRDNAKNTVYLQMNSLKPEDTAVYYCAADRWDDPWEFDYWGQCTQVTVSS | low polyreactivity |
| QVQLVESSGGLVQAGGSLSLICAASGIIFYGYAMGWYRQAPGKERELVASIRSGSNTYYADSVKGRFTISRDNAKNTVYLQMNSLKPEDTAFYSCAARVVPATFRFIRYPHPYYYWGQGTQVTVSS | low polyreactivity |
| QVQLVESGGGLVQAGGSLRLSCAASGSTFGPNAMGWYRQAPGKERELVAAINTRGGSTYYADSVKGRFTISRDNAKNTVYLQMNSLKPEDTAVYYCAAEYVVWYLDRFNYWGQGTQVTVSS | high polyreactivity |
| QVQLVESGGGLVQAGGSLRLSCAASGSIFESYAMGLYRQAPGKERELVAALTSSGDSTYYADSVKGRFTISRDNAKNTVYLQMYSLNPEDTAVDYCAKRVPTYISTADWVSRYDYWGQGTQVTVSS | low polyreactivity |
| QVQLVESGGGLVQAGGSLRLSCAASGSIFVYKAMGWYRQAPGKERELVAGITFIGGSTYYADSVKGRFTISRDNAKNTVYLQMNCLKPEDTAVYYCNADVAPGIFYGYDSWGQGTQVTVSS | low polyreactivity |
| QVQLVESGGGLVQAGGSLRLSCAASGSTFLRNAMGWYRQAPGKERELVATITNGGSTYYADSVKGRFTISRDNAKNTVYLQMNSLKPEDTAVYYCATRSSYWSWLRYGYGYWGQGTQVTVSS | low polyreactivity |
| QVQLVESGGGLVQAGGSLRVSCAASGGIFGWYAMGWSRQAPGKERELVATITWRGGRTYYADSVKGRCTISRDNAKNTVYLQLTSLKPESTAVYYCTAEWLWYDAGYRYTIRDSWGQGTQVTESS | low polyreactivity |
| QVQLVESGGGIVQAGGSLRLSCAASGNAMGWYRQAPGKERELVASINRSGGRTYYADSVKGRFTISRDNAKNTVYLQMNSLKPEDTAVYYCAARPHYDSDYWGQGTQVTVSS | low polyreactivity |
| QVQLVESGGGLVQAGGSLRLSCAASGRIFSYYAMGWYRQAPRKERELVAGINWRGGRTYYADTVKGRFTISRDNAKITGYLQMNSLKPEETAVYYCAGDHPETPYDYWGQGTQVTVSS | high polyreactivity |
| QVQLVESGGGLVQAGGSLRLSCAASGYTFLRYAMGWYRQAPGKERELVAAISRRGGRTYYADSVKGRFTISRDNAKNTVYLQMNSLKPEDTAVYYCAAVNSTQTIGLMDYWGQGTQVTVSS | high polyreactivity |
| QVQLVESGGGLVQAGGSLRLSCAASGRIFVKYAMGWYRQARGKESELVAAISKSGGSTYYADSVKGRFTISRDNAKTTVYLQINILKPEDTAVYYCAADEYYQVSAYDYWGQGTQVTVSS | low polyreactivity |
| QVQLVESGGGLVQAGGSLRLSCAASGFTFGRYVMGWYRQAPGKGRELVAAITSSGSRTYYADSVKGRFTISRDNAKNTVYLQMNSLKPEHTAVYYCAARVYWTPVYYWGQGTQVTVSS | high polyreactivity |
| QVQLVESGGGLVQAGGSLRLSCAASGSTFEDNAMGWYRQAPGKERELVAAITSGGNTYYADSVKGRFTISRDNAMNTVYLQMNSLKPDDTAVYYCNAVPFYYDFDYWGQGTQVTVSS | low polyreactivity |
| QVQLVESGGGLVQAGGSLRLSCAASGFTFYYNAMGWYRQAPGKERELVAAISASGGRTYYADSVKGRFTISRDNAKNTVYLQINSLKPEDTAVYYCAYRVYPHYGWYDYWGQGTQVTVSS | high polyreactivity |
| QVQLVESAGGLVQAGGSLRVICAASASTSVHNAMGWYRQAPGKERELVAAITSDGSTNYADSVKGRFTISRDNEKNTVYLLMYSLEPEDTAFYYCAALGWTYYVGYVSYSYGYWGQGTQVTVSS | low polyreactivity |
